Source: patent US20220235345A1 (University of California, published 2022)
Ends that are not written are not given here.

Tests used:
[1] = target: 35S-labeled human Scc1 fragment (residues 142-300) (UniProt O60216)
[2] = test system: Mca-DDREIMREGS-Dnp peptide containing Scc1 site 1
[3] = target: catalytically-dead separase with intact autocleavage sites (UniProt Q14674)
[4] = test system: securin^RE fragment containing residues 93-150
[5] = target: separase biosensor H2B-mRuby2-Scc1(142-467)-mNeonGreen with 255Leu-Pro to Ala-Ala (UniProt O60216)
[6] = target: separase biosensor H2B-mRuby2-Scc1(142-467)-mNeonGreen with deletion of Scc1 aa 251 to 260 (UniProt O60216)
[7] = target: T1, separase biosensor H2B-mRuby2-Scc1(142-467)-mNeonGreen, wild-type (UniProt O60216)
T1 sequence (O60216 whole entry, looked up): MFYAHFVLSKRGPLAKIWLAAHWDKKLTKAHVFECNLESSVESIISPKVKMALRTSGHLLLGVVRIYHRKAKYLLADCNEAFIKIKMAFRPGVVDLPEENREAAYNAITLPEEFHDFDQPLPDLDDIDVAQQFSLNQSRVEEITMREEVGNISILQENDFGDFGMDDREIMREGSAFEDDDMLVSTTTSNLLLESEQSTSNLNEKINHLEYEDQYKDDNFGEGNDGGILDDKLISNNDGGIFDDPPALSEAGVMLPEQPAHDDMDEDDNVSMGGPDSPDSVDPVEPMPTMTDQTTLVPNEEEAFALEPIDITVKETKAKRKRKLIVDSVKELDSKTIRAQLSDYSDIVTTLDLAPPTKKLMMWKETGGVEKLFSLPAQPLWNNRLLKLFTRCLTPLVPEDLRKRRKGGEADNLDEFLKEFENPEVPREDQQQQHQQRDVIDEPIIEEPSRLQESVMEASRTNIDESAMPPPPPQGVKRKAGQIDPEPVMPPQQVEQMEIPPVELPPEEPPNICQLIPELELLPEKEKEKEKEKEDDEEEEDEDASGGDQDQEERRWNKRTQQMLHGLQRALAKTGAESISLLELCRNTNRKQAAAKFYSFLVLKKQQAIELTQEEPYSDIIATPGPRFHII

[8] = target: T2, active human separase, securin-free (ClpXP-activated separase obtained from the securin-separase fusion after … (human, UniProt Q14674 1-2120)); assay: in vitro cleavage of 35S-labeled securin^RE fragments with LP mutations by separase; interaction inferred from cleavage
T2 construct: also called active separase; apo separase; not shown: N-terminal remnant left after TEV cleavage of the fusion (3x FLAG tag between TEV site and separase)
Excerpt: An approach for investigating the importance of ¹³⁰LPE for securin binding to separase was developed. It is known that fungal securin can be converted to a separase substrate by making mutations that convert the pseudosubstrate site into a cleavage site⁴. The equivalent mutations were made in human securin (¹¹⁸FP to RE) and this securin^RE mutant was used to test the importance of ¹³⁰LPE for securin engagement with separase. An LP sequence a few residues further downstream (¹³⁹LP) was also tested. […] A securin^RE fragment containing residues 93-150 was then tested. […] Mutation of ¹³⁹LP had no effect, except when combined with mutation of ¹³⁰LP.

Sequence of catalytically-dead separase with intact autocleavage sites (Q14674 whole entry S1126A/C2029S, the tested form may be a part): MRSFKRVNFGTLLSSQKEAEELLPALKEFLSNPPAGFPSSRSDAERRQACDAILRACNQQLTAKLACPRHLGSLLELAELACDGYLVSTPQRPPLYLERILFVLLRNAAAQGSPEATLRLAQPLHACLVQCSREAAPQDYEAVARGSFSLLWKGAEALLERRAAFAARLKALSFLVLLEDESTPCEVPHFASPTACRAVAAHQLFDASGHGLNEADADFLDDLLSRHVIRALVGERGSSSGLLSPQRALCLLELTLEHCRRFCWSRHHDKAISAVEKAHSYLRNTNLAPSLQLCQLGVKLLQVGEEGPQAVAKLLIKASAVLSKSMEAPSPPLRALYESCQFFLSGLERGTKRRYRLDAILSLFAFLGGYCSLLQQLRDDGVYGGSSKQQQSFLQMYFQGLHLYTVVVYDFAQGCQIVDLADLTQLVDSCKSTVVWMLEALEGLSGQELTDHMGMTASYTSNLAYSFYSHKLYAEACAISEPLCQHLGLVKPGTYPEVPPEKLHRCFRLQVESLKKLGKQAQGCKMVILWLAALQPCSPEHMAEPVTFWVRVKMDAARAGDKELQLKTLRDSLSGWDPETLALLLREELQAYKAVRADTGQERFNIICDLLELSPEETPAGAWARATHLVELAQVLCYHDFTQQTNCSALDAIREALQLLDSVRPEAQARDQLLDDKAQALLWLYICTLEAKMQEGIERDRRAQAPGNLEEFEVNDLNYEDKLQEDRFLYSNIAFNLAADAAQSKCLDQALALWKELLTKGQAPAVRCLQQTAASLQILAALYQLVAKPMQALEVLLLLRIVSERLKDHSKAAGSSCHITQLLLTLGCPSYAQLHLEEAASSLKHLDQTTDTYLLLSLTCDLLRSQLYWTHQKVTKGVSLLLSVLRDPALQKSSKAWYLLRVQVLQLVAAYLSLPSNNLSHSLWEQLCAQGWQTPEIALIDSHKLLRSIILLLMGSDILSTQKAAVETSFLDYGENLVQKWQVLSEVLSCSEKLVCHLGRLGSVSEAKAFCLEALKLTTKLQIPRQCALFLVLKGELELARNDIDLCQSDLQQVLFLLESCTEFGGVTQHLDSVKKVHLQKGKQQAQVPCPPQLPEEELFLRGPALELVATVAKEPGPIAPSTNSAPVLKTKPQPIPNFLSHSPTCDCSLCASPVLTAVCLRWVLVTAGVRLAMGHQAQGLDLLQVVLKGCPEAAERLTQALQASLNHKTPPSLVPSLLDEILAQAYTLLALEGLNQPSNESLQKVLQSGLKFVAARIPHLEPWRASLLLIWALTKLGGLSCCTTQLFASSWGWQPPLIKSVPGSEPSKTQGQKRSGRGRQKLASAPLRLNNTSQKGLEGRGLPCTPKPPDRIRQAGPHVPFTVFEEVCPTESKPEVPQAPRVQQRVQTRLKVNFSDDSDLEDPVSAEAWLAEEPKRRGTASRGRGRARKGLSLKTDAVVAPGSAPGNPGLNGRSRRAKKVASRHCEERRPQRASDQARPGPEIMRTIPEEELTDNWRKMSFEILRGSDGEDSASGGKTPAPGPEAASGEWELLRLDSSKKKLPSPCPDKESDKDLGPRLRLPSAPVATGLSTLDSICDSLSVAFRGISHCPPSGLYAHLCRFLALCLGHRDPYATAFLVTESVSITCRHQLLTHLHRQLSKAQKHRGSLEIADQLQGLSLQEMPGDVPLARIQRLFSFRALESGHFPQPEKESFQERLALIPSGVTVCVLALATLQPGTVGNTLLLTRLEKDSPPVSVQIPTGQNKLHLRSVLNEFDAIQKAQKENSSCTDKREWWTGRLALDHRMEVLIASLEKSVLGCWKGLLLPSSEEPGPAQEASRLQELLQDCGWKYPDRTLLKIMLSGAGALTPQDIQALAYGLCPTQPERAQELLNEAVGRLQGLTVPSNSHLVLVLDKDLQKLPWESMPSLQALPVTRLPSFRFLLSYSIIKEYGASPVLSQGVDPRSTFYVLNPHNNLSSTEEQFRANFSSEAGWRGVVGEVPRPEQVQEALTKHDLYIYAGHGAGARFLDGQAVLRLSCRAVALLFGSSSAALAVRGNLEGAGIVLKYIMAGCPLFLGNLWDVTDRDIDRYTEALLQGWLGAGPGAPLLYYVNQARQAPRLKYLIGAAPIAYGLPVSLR
T2 sequence (Q14674 other isoform, or with tags, fused parts or gaps): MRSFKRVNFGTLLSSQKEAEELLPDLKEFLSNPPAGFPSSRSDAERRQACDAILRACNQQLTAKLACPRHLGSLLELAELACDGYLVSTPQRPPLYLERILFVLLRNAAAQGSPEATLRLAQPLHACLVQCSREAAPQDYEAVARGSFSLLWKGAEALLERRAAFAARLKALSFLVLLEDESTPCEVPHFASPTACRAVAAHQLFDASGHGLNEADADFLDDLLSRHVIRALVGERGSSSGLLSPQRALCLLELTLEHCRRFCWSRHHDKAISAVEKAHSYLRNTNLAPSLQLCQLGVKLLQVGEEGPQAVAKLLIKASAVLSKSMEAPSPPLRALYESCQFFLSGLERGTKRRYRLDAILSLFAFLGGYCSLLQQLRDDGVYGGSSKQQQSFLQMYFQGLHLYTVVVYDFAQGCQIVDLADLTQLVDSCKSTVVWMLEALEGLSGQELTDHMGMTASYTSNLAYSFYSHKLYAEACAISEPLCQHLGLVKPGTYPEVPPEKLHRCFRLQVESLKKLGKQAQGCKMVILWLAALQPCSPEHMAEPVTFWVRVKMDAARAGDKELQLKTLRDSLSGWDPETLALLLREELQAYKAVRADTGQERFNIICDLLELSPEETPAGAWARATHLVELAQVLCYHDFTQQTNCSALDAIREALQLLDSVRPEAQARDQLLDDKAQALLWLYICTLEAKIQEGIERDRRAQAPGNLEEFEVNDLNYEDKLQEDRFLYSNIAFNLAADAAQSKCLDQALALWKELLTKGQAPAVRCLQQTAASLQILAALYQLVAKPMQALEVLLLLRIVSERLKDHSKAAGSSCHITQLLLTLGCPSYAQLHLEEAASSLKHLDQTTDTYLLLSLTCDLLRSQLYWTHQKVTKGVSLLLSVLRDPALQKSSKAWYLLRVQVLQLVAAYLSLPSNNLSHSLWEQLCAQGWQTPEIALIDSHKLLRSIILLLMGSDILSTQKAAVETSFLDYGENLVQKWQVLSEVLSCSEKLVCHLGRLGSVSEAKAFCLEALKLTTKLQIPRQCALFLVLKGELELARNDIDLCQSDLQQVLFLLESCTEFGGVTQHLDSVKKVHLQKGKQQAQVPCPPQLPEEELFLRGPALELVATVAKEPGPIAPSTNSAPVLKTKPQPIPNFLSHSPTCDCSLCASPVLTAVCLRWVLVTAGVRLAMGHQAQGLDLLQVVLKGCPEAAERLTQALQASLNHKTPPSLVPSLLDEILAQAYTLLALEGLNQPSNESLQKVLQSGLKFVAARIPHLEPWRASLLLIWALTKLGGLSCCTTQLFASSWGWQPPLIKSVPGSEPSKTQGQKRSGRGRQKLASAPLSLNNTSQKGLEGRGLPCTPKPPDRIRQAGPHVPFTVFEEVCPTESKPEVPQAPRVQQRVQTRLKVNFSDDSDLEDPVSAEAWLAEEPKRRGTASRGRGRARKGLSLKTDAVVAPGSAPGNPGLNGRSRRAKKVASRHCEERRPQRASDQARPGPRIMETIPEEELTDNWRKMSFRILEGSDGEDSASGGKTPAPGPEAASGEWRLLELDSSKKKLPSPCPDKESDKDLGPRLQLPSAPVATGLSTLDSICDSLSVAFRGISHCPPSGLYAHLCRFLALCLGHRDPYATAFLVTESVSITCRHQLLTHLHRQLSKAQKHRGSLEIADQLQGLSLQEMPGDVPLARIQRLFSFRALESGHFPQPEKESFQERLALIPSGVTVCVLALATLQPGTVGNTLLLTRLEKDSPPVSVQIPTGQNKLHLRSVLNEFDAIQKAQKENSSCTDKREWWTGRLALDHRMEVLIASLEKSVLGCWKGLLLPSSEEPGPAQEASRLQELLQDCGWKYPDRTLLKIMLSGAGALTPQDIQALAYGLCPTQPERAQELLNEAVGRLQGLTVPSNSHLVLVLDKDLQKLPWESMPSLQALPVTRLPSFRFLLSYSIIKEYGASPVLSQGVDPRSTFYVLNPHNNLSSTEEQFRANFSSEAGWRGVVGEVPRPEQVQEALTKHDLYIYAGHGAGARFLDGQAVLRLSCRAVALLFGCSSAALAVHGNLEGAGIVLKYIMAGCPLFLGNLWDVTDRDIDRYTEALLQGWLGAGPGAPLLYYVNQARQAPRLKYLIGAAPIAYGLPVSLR

For “active human separase, securin-free (ClpXP-activated separase obtained from the securin-separase fusion after TEV protease cleavage and ClpXP removal of securin)”, the “cleavage of an Scc1 fragment in vitro” value [1] was “incubation with purified ClpXP removed securin and activated separase, as evaluated by cleavage of an Scc1 fragment in vitro”, the KM [2] was “KM of 70±30 µM” and the cleavage in trans [3] was “Separase also cleaved a catalytically-dead separase with intact autocleavage sites”. For the same molecule, the “cleavage of securin^RE fragment” value [4] was “This fragment was 50% cleaved by separase”.

In the case of securinΔ127-separase, the “cleavage of the Scc1 fragment in the gel-based assay” value (shortened to “cleavage of the Scc1 fragment”) [1] is reported as “exhibited no cleavage activity in this assay” and the “peptide cleavage activity (Michaelis-Menten)” value (“peptide cleavage activity” for short) [2] is reported as “no significant differences between the peptide cleavage activities of the three securinΔ-separase proteins and separase with no securin bound”.

With securinΔ138-separase the “cleavage of the Scc1 fragment” value [1] was “exhibited efficient cleavage of the Scc1 substrate” and the “peptide cleavage activity” value [2] was “no significant differences between the peptide cleavage activities of the three securinΔ-separase proteins and separase with no securin bound”.

In the case of securinΔ160-separase, the “cleavage of the Scc1 fragment” value [1] is reported as “exhibited efficient cleavage of the Scc1 substrate” and the “peptide cleavage activity” value [2] is reported as “no significant differences between the peptide cleavage activities of the three securinΔ-separase proteins and separase with no securin bound”.

For “separase in human U2OS cells (endogenous)”, the biosensor cleavage efficiency [5] was “reduced cleavage efficiency by 50%”, the biosensor cleavage efficiency [6] was “yielded identical results as the double alanine mutation” and the “biosensor cleavage during anaphase” value [7] was “efficient biosensor cleavage was observed during anaphase”.

B1: securin^RE fragment containing residues 93-150 (other)
chain: MTEKTVKAKSSVPASDDAYPEIEKFREFNPLDFESFDLPEEHQIAHLPLSGVPLMILD
modifications: also: 35S-methionine label
notes: Pseudosubstrate motif converted into a separase cleavage site; Translated in vitro with ZZ tag, released by TEV protease; also called 35S-labeled securin fragment (aa 93-150)
B1: binds [8].
